Experimental data taken from the nanobody polyreactivity screen of Harvey et al. (2022).

Assay: yeast display, Sf9 membrane polyspecificity reagent, FACS + sequencing; frameworks hold sequencing errors
Procedure, shortened: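 Nanobodies came from a synthetic yeast display library in Saccharomyces cerevisiae BJ5465, induced with galactose for 36–48 hours and stained for 1 hour at 4 °C with 10% biotinylated, detergent-solubilized Sf9 membrane reagent. Cells were enriched on streptavidin microbeads and then FACS-sorted, with low and high (top ~1%) gates set on anti-HA fluorescence for expression and streptavidin fluorescence for reagent binding. Each polyreactivity label reflects the gate a clone came from. Genes were amplified by colony PCR, sequenced by MiSeq 2 × 250 and filtered by CDR length.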

Sequence	polyreactivity (PSR sort gate)
QVQLVESGGGLVQAGGSLRLRCAASGGIFTNNAKGWYRQAPGKERELVAAITGSGASTYYADSVKARFTISRDNAKNSVYLHLNSLKPEDTAVYYCNTDSPYGWEGEFDYWGLGTQVTVSS	high polyreactivity
QVQLVESGGGLVQAGGSLRLSCAASGRILGYYAMGWSRQAPGKEREFVAAITTRGGNTYYADSVKGRFTISRDNAKNTVYLQMNSLKPEDTAVYYCAAESYTYRDAPTYFTRMYYWGQGTQVTVSS	high polyreactivity
QVQLVESGGGLVQAGGSLRLSCAASGITIVNYVMGWYRKAPGKERELVAAISIGGGTYYADSVKGRFTISRDNAKNTVYLQINSLKPEDTAVYYCNASYGGLSFYIGVYVTGYDYWGQGTQVTVSS	low polyreactivity
QVQLVDSGGGLVQAGGSLRLSCADSGRTFWGYGKGWYRQATGKERELVATISSGGSTYYADSVKGRFTISRDNAKNTVYLQMNSLKPEDTAVYYCAARPPPTYWRYQSDYWGQGTQVTVSS	high polyreactivity
QVQLVESGGGLVQAGGSLRLTCAASGRTFQYNAMVWYRQAPGKERELVAAISSSGGSTYYADSVKGRFTISRDNAKNTVYLQMNSLKPEDTAVYYCNAYSQSWNFYGDGDYWGQGTQVTVSS	low polyreactivity
QVQLVESGGGLVQAGGSLRLSCAASGSTFGYNDMGRYRQAPGKERELVADSSYSGDSTYSADSVKGRFTISRDNAQNTVYLQMNSLKPEDTAVYYCKADRFADYDDWGQGTQVTVSS	low polyreactivity
QVQLVESGGGLVQAGGSLRLSCAASGLIFPYYAMGWYRQAPGKERELVAAISGSGGRTYNADSVKWRFTISRDNAKNTVYLQMNSLKPEDPAVYYCAAAVLDRYTRYIWYIFDYWGQGTQVTVSS	high polyreactivity
QVRLVESGGGLVQAGGSLRLSCAASGRILQVYAMGWYRQAPGKERELVAGIRSSGGRTYYADSVKGRFTISRDNAKNTVSLQMNSLKPEDTAVYYCAADQDWYGFVIGFDYWGQGTQVTVSS	low polyreactivity
QVQLVESGGGLVQAGGSLRLSCAASGGTLYTYAMGWYRQAPGKEWEFVAAITVSGGRTYYADSVKGRFPISRDNAKNTVYLQINSLKPEDTAVYYCAARYWSWRSFKVDYWGQGTQVTVSS	high polyreactivity
QVQLVESGGGLVQAGGSLRLSCAASGSTFYSNVMGWYRQAPGKERELVAAISRSGGSTYYADSVKGRFTISRDNAKNTVYLQMNSLKPEDTAVYYCAAEREVGDAYDYWGQGTQVTVSS	high polyreactivity
QVQLVESGGGLVQAGGSLRLSCADSGSIFRVNAMGWYRQAPGKDRELVAAISSGGSTHYADSVKGRFTISRDNAKNTVYLQMNSLKPEDTAVYYCAVRYALVPYLWYYWGQGTQVTVSS	high polyreactivity
QVQLVESGGGLVQAGGSLRLSCAASGLIFFHNGMGWYRQAPGKEREFVAVISSSGGSTYYADSVKGRFTISRDNAKNTVYLQMNSLKPEDTAVYYCAARDYSRRYGYWGQGTQVTVSS	high polyreactivity
QVQLVESGGGLVQAGGSLRLSCAASGSIIYYNAMGWYRQAPAKERELVAAITGSGGSTYYADSVKGRFTISRDNAINTVYLQMNSLKPEDTAVYDCAADYSLYGWWFRNDYWGQGTQVTVSS	low polyreactivity
QVQLVESGGCLVQAGGSLRLSCAASGFTFRWYTMGWYRQAPGKERELVAAITGSGCTTYYADSVKGRFTISRDYAKNSVYLQMNSLKPVDTAVYYCAVVTGSFRTRYTYYYLGQGTQVTVSS	high polyreactivity
QVQLVVSGGGLVQAGGSLRLSCAASGITFGRNTMGWYRQAPGKERELVAAIDSGGNTYADSVKGRFTISRDNAKNTVYLQMNSLKPEDTAVYYCAVDGGEFSSYGYWGQGTQVTVSS	low polyreactivity
QVQLVESGGGLVQAGGSLRLSCPASGSTFRYYAMGWYRPAPGKERELVAGISSSGGSTYYADSVKGRFTISRDNAKNTVYLQMNSLKPEDTAVYYCNAARGTSRSWAVFADYDYWGQGSQVTVSS	high polyreactivity
QVQLVESGGGLVQAGGSLRLSCAASGSIFQYNAMGWSRQAPGKERELVAAISSRGGITYYADSVKGRFTISRDNAKNTVYLQMNSLKPEDTAVYYCAAEAYYSEVRWYEYWGQGTQVTVSS	high polyreactivity
QVQLVESGGGLVQAGGSLRLSCAASGIIFGRYAMGWYRQAPGKERELVAAITRGGSTKYADSVKGRFTISRDNAKNTVYLQMNSLKPEDTAVYYCARVRRYPLRYNYWGQGTQVTVSS	high polyreactivity
QVQLVESGGGLVQAGGSLRLSCAASGSTFWQYAMGWYRQAPGKERELVAAISYSGGSTYYADSVKGRFTISRDNAKNTVYLQMNSLKPEDTAVYYCAKEYNVGFYLVFNRFDYWGQGTQVTVSS	low polyreactivity
QVQHVESGAGLVQAAGSLRLSCAASGSTFSSYALGWYRQAPGKERELVAAISHGDSTYYADSVKGRFTISRDNAKNTVYLQMNSLKPEDSAVYYCAALHEVWGVDYWGQGTHVTVSS	low polyreactivity
QVQLVESGGGLVQAGGSLSLSCAASGSTFIHNAMGWYRQAPGKERELVAAITSGGSTYYADSVKGRFTISRDNAKNTVYLQMNSLKPEDTAVYYCNRVSWRYSTMEYWGHGTQVTVSS	high polyreactivity
QVQLVESGGGLVQAGGSLRLSCAASGFTFSLYAMGWYRQAPGKDRELVASISRSGGSTYYADSVKGRFTISRDNAKYTVYIQMYSLKPEDTAVYYCAARWRPYKYDSWGQGTQVTVSS	high polyreactivity

Sequence	polyreactivity (PSR sort gate)
QVQLVESGVGLVQAGGSLRLICADSGSIFSQYAMGGYRPAPGKERELVAAISKNGGSTYYADSVKGRFTISRDNAKNTVYSQMNSLKPEDTAVYYCAARVLKGYYWGQGTQVTVSS	high polyreactivity
QVQLVESGGGLVQAGGSLRVSCAASGNTFGPYAMGWYRQAPGKERELVAAISSGGSTNYADSVKGRFTISRDNAKNTVYLQMNSLKPEDTAVYYCARDAFSGSDFSYASIEYDYWGQGTQVTVSS	low polyreactivity
QVQLVESGGGLVQAGGSLRLSCAASGSIFSNAMGWYRQAPGKERELVAAITGRGGRTYYADSVKGRFTISRDNAKNTVFLQMNSLKPEDTAVDYCARDSPWSSRYRYRAFDYWGQGTQVTVSS	high polyreactivity
QVQLVESGGGLVQAGGSLRLSCAASGRTFPGNAMGWYRQAPGKERELVAAISWSGTRTYYADSVKGRFTISRDNAKHTVYLQMNSLKPEDTAVYYCNVVVKGAWDYYPYDYWGQGTQVTVSS	high polyreactivity
QVQLVESGGGLVQAGGSLRLSCGASGRIFGRYAMGWYRQAPAKERELVAVITFSGGDTFYADSVKGRFTISRDNAKNTVYLQMNSLKPEDTAVYYCAKSQGFETYRNVSIFGYWGQGTQVTVSS	low polyreactivity
QVQLVESGGCLVQAGGSLRLMCAASGSTFRVNAMGWSRQAPGKERELVAAITRGGSTNYADSVKGRFTISRDNAKNTVYLQMNSLKPEDTAVYYCNAGDDFGRYVPFSWGRFDYWGQGTQVTESS	low polyreactivity
QVQLVESGGGLVQAGGSLRLSCAASGRTFPWYTMGWYRQAPGKERELVAAITRSSGSAYYADSVKGRFTISRDTAKNPVYLQMNSLKQEDTAVYYCAARYWVAGFRGRPYDYWGQGTQVTVSS	high polyreactivity
QVQLVESGGGLLQAGGSLRLSCAASGRILGPNAMGWYRQAPGTERELVAAINSGGSTNYADSVKGRFTISRDNAKNTVYLQMNSLKPEDTAVYYCATDKARVAGYGVEYDYWGQGTQVTVSS	low polyreactivity
QVQLVESGGGLVQAGGSLRISCAASGMIFDWYTMGWYRQAPGKERELVAAISWRGGRTYYADSVKGRFTISRDNAQNTVYLQMNSLKPEDTAVYYCAAEGLFTGRVSRFADDHWGQGTQVTVSS	low polyreactivity
QVQLVESGGGLVQAGGSLRLSCAASGSTFNYYAMGWYRQAPGKERELVAAIDWSGGSTYYADSVKGRFTISRDNAKNTVYLQMNSLKPEDTAVYYCAARTYDYSYRSYDYWGQGTQVTVSS	low polyreactivity
QVQLVESGGGLVQAGGSIRLSCAASGRIFARYAMGWYRQAPGTERELVASITVSGDNTYYADSVKGRFTISRDNAKKTVYLQMNSLKPEDTAVYYCAVRAVVLFGFFEYDYWGQGTQVTVSS	low polyreactivity
QVQLVESGGGLVQAGGSLRLSCAASGFIFRYYAMGWYRQAPGKERELVAAITSRGSSTYYADSVKGRFTISRDNAKNTVYLQMNSLKPEDTAVYYCAARSSATRSWIASRPGYRYNYWGQGTQVTVSS	high polyreactivity
QVQLVESGGGLVQAGGSLRLSCAAYGSTLLTYTMGWYRQAPGKERELVASITTSGGSTYYADSVKGRFTISRDNAKNTVYLQMNSLKPEDTAVYYWGQGTQVTVSS	low polyreactivity
QVQLVESGGGLVQAGGSLRLSCAASGRTFYSNSMGWYRQAPGKERELVATISWRGGSTYYADSVKGRFTISRDNAKNTVYFQMHSLKPEDTAVYYCAAGYYPYWGQGTQVTVSS	low polyreactivity
QVQLVESGGGLVQAGGSLRLSCAASGITFEANTMGWYRQAPAKERELVAVITDTGSTNYADSVKGRFTISRDNAKNTVYLQMNSLKPEDTAVFYCKADAEPSSGTSAKNDYWGQGTQVSVSS	low polyreactivity
QVQLVESGGGLVQAGGSLRLSCAASGFIFGSYAMGWYRQAPGNERELVAAISDSGDSTYYADSVKGRFTISRDNAKNTVSLQLTRLKPEDTAVYYCNRGYRWRRYENYYWGQVTQVTVSS	high polyreactivity
QVQVVESGGGLVQAGGSLRLSCAASGFIFFTYAKGWYRPAPGKERELVADISSRGGSTYYADSVKGRFTISRDNAKNTVYLQMNSLKPEDTAVYYCARTRFWLRYRLFDYWGQGTQVTVSS	low polyreactivity
QVQLVESGGGLVQAGGSLRLTCAASGRTFRIYAMGWYRQAPGKERELVAAIRWSGGTTYYADSVKGRFTISRDNAKNTVYFQMNSLKPEDTAVYYCAADSTNRYDYWGQGTQVTVSS	high polyreactivity
QVQLVESGGGLVQAGGSLRLSCAASGITQYGYAMGWYRQAPGKEREFVAAISRSGDRTYYADSVKGRYTISRDNAKNTVYLQLNSLKPEDTAVYYCNAWRYDYWGQGTQVTVSS	high polyreactivity
QVQLVESGGGLVQAGGSLRLSCAASGSTFSRYTMGWYRQAPGKERELVAAISKSGGSTYYADSVKGRFTISRDNAKNTVYLQMNSLKPEDTAVYYCAALVRAGTSLDYDYWGQGTEVTVSS	high polyreactivity
QFQLVESGGGLVQAGGSLRLSCAPSGSTFVSYSMAWYRQEPGKERQFVAAITWSGGSTYYADSVKGRFTISRDNANNTVYLQMNSLKPEDTAVYYCARPYRGSPRYYYWGQGTQVTLSS	high polyreactivity
